Reference: patent publication US20240400670A1 (JIANGSU HENGRUI PHARMACEUTICALS, published 2024)
Where a chain is given by its changes, count along the chain named. Blank lines part the entries; values can stand above or below the binder they belong to.

Legend:
[1] = molecular target: T1, human IL-23 (Sino Biological, CT048-H08H) (human, UniProt Q9NPF7 20-189; P29460 23-328); assay: cell-based or functional assay
T1 sequence (looked up) 1: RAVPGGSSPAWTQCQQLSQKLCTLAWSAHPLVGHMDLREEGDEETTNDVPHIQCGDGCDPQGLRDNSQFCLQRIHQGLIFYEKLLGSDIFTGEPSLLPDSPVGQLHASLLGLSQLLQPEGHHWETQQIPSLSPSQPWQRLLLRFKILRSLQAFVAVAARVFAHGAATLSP
T1 sequence (looked up) 2: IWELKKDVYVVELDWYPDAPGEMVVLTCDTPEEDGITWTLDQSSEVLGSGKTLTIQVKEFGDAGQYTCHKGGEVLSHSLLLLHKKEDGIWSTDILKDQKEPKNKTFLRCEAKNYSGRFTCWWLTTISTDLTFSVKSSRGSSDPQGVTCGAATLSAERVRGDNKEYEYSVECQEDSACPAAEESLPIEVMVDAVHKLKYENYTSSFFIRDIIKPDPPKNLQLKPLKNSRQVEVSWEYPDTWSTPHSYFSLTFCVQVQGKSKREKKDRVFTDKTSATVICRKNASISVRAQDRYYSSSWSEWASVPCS

[2] = molecular target: T1, human IL-23 (Sino Biological, …); assay: SPR (Biacore), Protein A capture of sample, 1:1 model
Protocol: A certain amount of test sample was subjected to affinity capture by a biosensor chip Protein A (GE, 29127556), and then antigens at a series of concentration gradients were allowed to flow on the surface of the chip. The reaction signals were detected in real time by using Biacore (GE, 8 K) to obtain association and dissociation curves. After the dissociation was completed for each cycle, the biochip was washed and regenerated with a 10 mM glycine-hydrochloric acid solution at pH 1.5 (GE, BR-1003-54). Fitting was performed based on the experimental data using BlAevaluation version 4.1 software with a 1:1 model, and affinity values were obtained.

- Activity in inhibiting proliferation of BaF3-IL-23R cells (IC50, nM) [1]: 0.116 nM
- Kd [2]: 0.197 nM
- koff [2]: 7.07e-05 s⁻¹
- kon [2]: 358000 M⁻¹ s⁻¹
B1: Hu38-10 (antibody, human IgG1, kappa, L234A L235A, V domains shown)
VH: EFQLVQSGAEVKKPGASVKVSCKASGYSFTDHNMNWVRQAPGQRLEWMGVINPNYGTTTYNQKFKGRVTITVDQSASTAYMELSSLRSEDTAVYYCARRGFAYWGQGTLVTVSS
VL: DIVMTQTPLSLPVTPGEPASISCRSSKSLLYKDGKTYLNWFLQKPGQSPQLLIYLMSTRASGVPDRFSGSGSGTDLTLKISRVEAEDVGVYYCQQIAEYPFTFGSGTKLEIKR
notes: humanized mAb38, IgG1/kappa

- Activity in inhibiting proliferation of BaF3-IL-23R cells (IC50, nM) [1]: 0.174 nM
- Kd [2]: 0.168 nM
- koff [2]: 4.75e-05 s⁻¹
- kon [2]: 282000 M⁻¹ s⁻¹
B2: Hu38-8 (antibody, human IgG1, kappa, L234A L235A, V domains shown)
VH: B1 VH with F2V, Q74T
VL: B1 VL with S57Q
notes: humanized mAb38, IgG1/kappa

- Activity in inhibiting proliferation of BaF3-IL-23R cells (IC50, nM) [1]: 0.136 nM
- Kd [2]: 0.143 nM
- koff [2]: 3.91e-05 s⁻¹
- kon [2]: 273000 M⁻¹ s⁻¹
B3: Hu38-6 (antibody, human IgG1, kappa, L234A L235A, V domains shown)
VH: B1 VH with F2V, Q74T
VL: B1 VL
notes: humanized mAb38, IgG1/kappa

- Activity in inhibiting proliferation of BaF3-IL-23R cells (IC50, nM) [1]: 0.174 nM
- Kd [2]: 0.113 nM
- koff [2]: 4.44e-05 s⁻¹
- kon [2]: 393000 M⁻¹ s⁻¹
B4: Hu38-3 (antibody, human IgG1, kappa, L234A L235A, V domains shown)
VH: B1 VH with S28T, Q74T
VL: B1 VL with M4I, K44R
notes: humanized mAb38, IgG1/kappa

- Activity in inhibiting proliferation of BaF3-IL-23R cells (IC50, nM) [1]: 0.168 nM
- Kd [2]: 0.176 nM
- koff [2]: 6.15e-05 s⁻¹
- kon [2]: 349000 M⁻¹ s⁻¹
B5: Hu38-11 (antibody, human IgG1, kappa, L234A L235A, V domains shown)
VH: B1 VH
VL: B1 VL with M4I, K44R
notes: humanized mAb38, IgG1/kappa

- Activity in inhibiting proliferation of BaF3-IL-23R cells (IC50, nM) [1]: 0.146 nM
- Kd [2]: 0.161 nM
- koff [2]: 5.49e-05 s⁻¹
- kon [2]: 341000 M⁻¹ s⁻¹
B6: Hu38-16 (antibody, human IgG1, kappa, L234A L235A, V domains shown)
VH: B1 VH with R44S
VL: B1 VL with S57Q
notes: humanized mAb38, IgG1/kappa

- Activity in inhibiting proliferation of BaF3-IL-23R cells (IC50, nM) [1]: 0.149 nM
- Kd [2]: 0.168 nM
- koff [2]: 8.3e-05 s⁻¹
- kon [2]: 494000 M⁻¹ s⁻¹
B7: Hu38-15 (antibody, human IgG1, kappa, L234A L235A, V domains shown)
VH: B1 VH with R44S
VL: B1 VL with M4I, K44R
notes: humanized mAb38, IgG1/kappa

- Activity in inhibiting proliferation of BaF3-IL-23R cells (IC50, nM) [1]: 0.152 nM
- Kd [2]: 0.175 nM
- koff [2]: 5.45e-05 s⁻¹
- kon [2]: 312000 M⁻¹ s⁻¹
B8: Hu38-14 (antibody, human IgG1, kappa, L234A L235A, V domains shown)
VH: B1 VH with R44S
VL: B1 VL
notes: humanized mAb38, IgG1/kappa

- Activity in inhibiting proliferation of BaF3-IL-23R cells (IC50, nM) [1]: 0.168 nM
- Kd [2]: 0.206 nM
- koff [2]: 4.56e-05 s⁻¹
- kon [2]: 222000 M⁻¹ s⁻¹
B9: Hu38-1 (antibody, human IgG1, kappa, L234A L235A, V domains shown)
VH: B1 VH with S28T, Q74T
VL: B1 VL with F41Y, L76F
notes: humanized mAb38, IgG1/kappa

- Activity in inhibiting proliferation of BaF3-IL-23R cells (IC50, nM) [1]: 0.179 nM
- Kd [2]: 0.152 nM
- koff [2]: 7.41e-05 s⁻¹
- kon [2]: 486000 M⁻¹ s⁻¹
B10: Hu38-7 (antibody, human IgG1, kappa, L234A L235A, V domains shown)
VH: B1 VH with F2V, Q74T
VL: B1 VL with M4I, K44R
notes: humanized mAb38, IgG1/kappa

- Activity in inhibiting proliferation of BaF3-IL-23R cells (IC50, nM) [1]: 0.184 nM
- Kd [2]: 0.191 nM
- koff [2]: 6.12e-05 s⁻¹
- kon [2]: 321000 M⁻¹ s⁻¹
B11: Hu38-12 (antibody, human IgG1, kappa, L234A L235A, V domains shown)
VH: B1 VH
VL: B1 VL with S57Q
notes: humanized mAb38, IgG1/kappa
